Assay results published in patent publication US20180021429A1 (PHARMA FOODS INTERNATIONAL, published 2018).
Read-outs that look alike come from different tables or passages of the source.

T1: human FSTL1 (construct not stated) (human, UniProt Q12841 21-308)
T1 construct: also called human FSTL1 antigen; FSTL1 (R&D Systems, Inc. Cat#1694-FN-050)
T1 sequence: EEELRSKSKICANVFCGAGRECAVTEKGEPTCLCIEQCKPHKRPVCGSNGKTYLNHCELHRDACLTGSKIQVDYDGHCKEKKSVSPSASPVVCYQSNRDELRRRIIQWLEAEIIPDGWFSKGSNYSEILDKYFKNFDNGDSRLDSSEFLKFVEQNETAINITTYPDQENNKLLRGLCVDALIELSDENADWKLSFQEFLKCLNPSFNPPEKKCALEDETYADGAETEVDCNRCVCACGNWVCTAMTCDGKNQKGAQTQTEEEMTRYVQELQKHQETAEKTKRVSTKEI

T2: His-tagged mouse FSTL1 (amino acid sequence of mouse FSTL1 used in Examples, SEQ ID NO: 72) (mouse, UniProt Q62356 19-306)
T2 sequence: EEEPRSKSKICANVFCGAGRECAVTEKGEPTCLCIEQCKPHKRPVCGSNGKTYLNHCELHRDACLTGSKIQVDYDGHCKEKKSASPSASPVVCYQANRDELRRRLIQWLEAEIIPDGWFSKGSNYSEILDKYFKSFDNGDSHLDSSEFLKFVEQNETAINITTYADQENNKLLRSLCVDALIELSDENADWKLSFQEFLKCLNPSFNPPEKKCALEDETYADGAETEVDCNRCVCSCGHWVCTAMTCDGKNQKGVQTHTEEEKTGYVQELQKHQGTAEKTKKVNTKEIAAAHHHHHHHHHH


How the values were obtained:
[1] = target: T1, human FSTL1 (construct not stated); test: SPR (Biacore T-200), captured antibody, human FSTL1 10 µg/ml; on Dissociation amount (RU): time not given here
Protocol: (§1) The mouse chimeric antibodies were immobilized onto Sensor Chip CM5 (GE Healthcare Japan Corp., BR-1005-30) using Mouse Antibody Capture Kit (GE Healthcare Japan Corp., BR-1008-38), and their affinity for human FSTL1 was calculated using Biacore T-200 (GE Healthcare Japan Corp.).

[2] = target: T1, human FSTL1 (construct not stated); test: as above; remark: listed apart in the source
Protocol: as §1
(§2) First, the exhaustive activity comparison of the obtained antibodies was conducted with the human FSTL1 concentration fixed to 10 μg/ml (Table 33-1, FIG. 28).

[3] = target: T1, human FSTL1 (construct not stated); test: as above; remark: listed apart in the source
Protocol: as §1, §2

[4] = target: T1, human FSTL1 (construct not stated); test: as above; remark: listed apart in the source
Protocol: as §1, §2

[5] = target: T2, His-tagged mouse FSTL1 (amino acid …); test: ELISA, mouse FSTL1 coated (FIG. 3B)
[6] = target: T1, human FSTL1 (construct not stated); test: SPR (Biacore T-200), antibody on Human Antibody Capture Kit, human FSTL1 0 to 20 µg/ml
Protocol: (§3) Nine IgG1-type humanized antibodies of #6-55 were immobilized onto Sensor Chip CM5 (GE Healthcare Japan Corp., BR-1005-30) using Human Antibody Capture Kit (GE Healthcare Japan Corp., BR-1008-38), and their affinity for human FSTL1 was calculated using Biacore T-200 (GE Healthcare Japan Corp.). […] Among the 9 IgG1-type humanized antibodies of #6-55, a clone composed of a combination “H(2)-L(1)” having a […] KD value was selected as a lead antibody.

[7] = target: T1, human FSTL1 (construct not stated); test: as above; remark: listed apart in the source
Protocol: as §3

Row | Binding amount (RU) [1] [RU] | Dissociation amount (RU) [1] [RU] | Binding amount (RU) [2] [RU] | Dissociation amount (RU) [2] [RU] | Binding amount (RU) [3] [RU] | Dissociation amount (RU) [3] [RU] | Binding amount (RU) [4] [RU] | Dissociation amount (RU) [4] [RU] | binding result [5] | Kd [6] [nM] | Kd [7] [nM] | Binder
1 | 12.8 | 11.8 | 12.8 | 11.8 | 12.8 | 11.8 | 12.8 | 11.8 |  |  |  | anti-FSTL1 antibody clone #8-7 (chicken-mouse chimeric antibody) (antibody, mouse IgG1, kappa, V domains shown) VH: AVTLDESGGGLQTPGGGLSLVCKGSGFTFSSFNMFWVRQAPGKGLEWVAGIGKDGVPKYGAAVDGRATISKDNGQSTLRLQLNNLRAEDTGTYFCAKAAGGCSYDWCGIYAGDIDTWGHGTEVIVSS VL: ASTQPSSVSANPGEAVKITCSGGSGSYYGWYQQKSPGSAPVTVIYNNNQRPSDIPSRFSGSKSGSTATLTITGVQAEDEAVYFCGGYDSSTGHGGIFGAGTTLTVLG
2 | 11 | 8.8 | 11 | 8.8 | 11 | 8.8 | 11 | 8.8 |  |  |  | anti-FSTL1 antibody clone #5-3 (chicken-mouse chimeric antibody) (antibody, mouse IgG1, kappa, V domains shown) VH: AVTLDESGGGLQTPGGALSLVCKGSGFSFSSFNMFWVRQAPGKGLEWVAGIGKDGVPKYGAAVDGRATISKDNGQSTMRLQLNNLRAEDTGTYFCAKAAGGCSYDWCGIYAGDIDTWGHGTEVIVSS VL: ASTQPSSVSANPGETVKITCSGGSGYYYGWYQQKSPGSVPVTVIYNNNNRPSDIPSRFSGSKSGSTGTLTITGVRAEDEAVYYCGGYDNSGTGIFGAGTTLTVLG
3 | 8 | 4.7 | 8 | 4.7 | 8 | 4.7 | 8 | 4.7 |  |  |  | anti-FSTL1 antibody clone #8-8 (chicken-mouse chimeric antibody) (antibody, mouse IgG1, kappa, V domains shown) VH: AVTLDESGGGLQTPGGALSLVCKGSGFTFSSFNMFWVRQAPGKGLEWVAGIGKDGVPKYGAAVDGRATISKDNGQSTMRLQLNNLRAEDTGTYYCAKAAGGCSYGWCGAYTGDIDTWGHGTEVIVSS VL: ASTQPSSVSANPGEAVKITCSGGSGSYYGWYQQKSPGSAPVTVIYNNNQRPSDIPSRFSGSKSGSTATLTITGVQVEDEAVYFCGGYDSSTGHGGIFGAGTTLTVLG
4 | 11.1 | 12.3 | 11.1 | 12.3 | 11.1 | 12.3 | 11.1 | 12.3 | binds |  |  | anti-FSTL1 antibody clone #8-1 (chicken-mouse chimeric antibody) (antibody, mouse IgG1, kappa, V domains shown) VH: AVTLDESGGGLQTPGGALSLVCKGSGFTFSSFNMFWVRQAPGKGLEWVAGIGKDGVPKYGAAVDGRATISKDNGQSTMRLQLNNLRAEDTGTYFCAKAAGGCSYDWCGIYAGDIDTWGHGTEVIVSS VL: ASTQPSSVSANPGEAVKITCSGGSGSYYGWYQQKSPGSAPVTVIYNNNQRPSDIPSRFSGSKSGSTATLTITGVQAEDEAVYFCGGYDSSSGHGGIFGAGTTLTVLG
5 | 7 | 3.1 | 7 | 3.1 | 7 | 3.1 | 7 | 3.1 |  |  |  | anti-FSTL1 antibody clone #5-43 (chicken-mouse chimeric antibody) (antibody, mouse IgG1, kappa, V domains shown) VH: AVTLDESGGGLQTPGGGLSLVCKGSGFTFSSFNMFWVRQAPGKGLEWVAGIGKDGGTGYGAAVDGRATISKDSGQSTLRLQLNNLRAEDTGTYYCAKAAGGCSYDWCGAYTGDIDTWGHGTEVIVSS VL: ASTQPSSVSANPGEAVKITCSGGSGSYYGWYQQKSPGSAPVTVIYNNNQRPSDIPSRFSGSKSGSTATLTITGVQAEDEAVYFCGGYDSSTGHGGIFGAGTTLTVLG
6 | 9.2 | 7.1 | 9.2 | 7.1 | 9.2 | 7.1 | 9.2 | 7.1 |  |  |  | anti-FSTL1 antibody clone #5-2 (chicken-mouse chimeric antibody) (antibody, mouse IgG1, kappa, V domains shown) VH: AVTLDESGGGLQTPGGGLSLVCKGSGFTFSSFNMFWVRQAPGKGLEWVAGVGKDGGTGYGAAVDGRATISKDNGQSTLRLQLNNLRAEDTGTYYCAKAAGGCSYGWCGSYVGDIDAWGHGTEVIVSS VL: ASTQPSSVSANPGEAVKITCSGGSGSYYGWYQQKSPGSAPVTVIYNNNQRPSDIPSRFSGSKSGSTATLTITGVQAEDEAVYFCGGYDSSTGHGGIFGAGTTLTVLG
7 | 8.7 | 0.2 | 8.7 | 0.2 | 8.7 | 0.2 | 8.7 | 0.2 | binds |  |  | anti-FSTL1 antibody clone #13 (chicken-mouse chimeric antibody) (antibody, mouse IgG1, kappa, V domains shown) VH: AVTLDESGGGLQTPGGGLSLVCKASGFTFSSVTMQWVRQAPGKGLEWVASICSGSSTYYGPAVKGRATISRDNGQNTVRLQLNNLRAEDTATYYCAKIVGRGRWSCTSAAYNIDAWGHGTEVIVSS VL: ASTQPSSVSANPGETVKITCSGGGNNYGWYQQKSPGSAPVTVIYNNNNRPSNIPSRFSGSKSGSTNTLTITGVQAEDEAVYYCGSYDSSSDSGIFGAGTTLTVLG
8 | 10.9 | 4.1 | 10.9 | 4.1 | 10.9 | 4.1 | 10.9 | 4.1 | binds |  |  | anti-FSTL1 antibody clone #33 (chicken-mouse chimeric antibody) (antibody, mouse IgG1, kappa, V domains shown) VH: AVTLDESGGGLQTPGGGLSLVCKASGFTFSSFNMNWVRQAPGKGLEYVAEISGTGSSTYYGSAVKGRATISRDNGQSTVRLQLNNLRAEDTATYFCARGDGAYSIDAWGHGTEVIVSS VL: ASTQPSSVSANPGETVEITCSGDSSYYGWFQQKSPGSAPVTVIYDNTNRPSDIPSRFSGSKSGSTATLTITGVRAEDEAVYYCGGYDSSTYDGIFGAGTTLTVLG
9 |  |  |  |  |  |  |  |  |  | 26.7 | 26.7 | humanized #6-55 antibody H(3)-L(1) (IgG1 type) (antibody, V domains shown, Human IgG1 constant region; expressed in HEK293; also called h#6-55 H(3)-L(1)) VH: EVQLLESGGGLVQPGGSLRLSCAASGFTFSSVTMQWVRQAPGKGLEFVASVCSGSSTYYAPAVKGRVTISRDNSKNTVYLQMNSLRAEDTAVYYCAKIAGRARWSCTSAAYNIDAWGQGTLVTVSS VL: SYELTQPPSVSVSPGQTARITCSGGGNNYGWYQQKPGQAPVTVIYYNDNRPSGIPERFSGSNSGSTTTLTISGVQAEDEADYYCGSWDSNTDSGIFGGGTKLTVLG
10 | 9.8 | 12.1 | 9.8 | 12.1 | 9.8 | 12.1 | 9.8 | 12.1 |  |  |  | anti-FSTL1 antibody clone #5-10 (chicken-mouse chimeric antibody) (antibody, mouse IgG1, V domains shown) VH: AVTLDESGGGLQTPGGGLSLVCKGSGFTLSSFNMFWVRQAPGKGLEWVAGVGKDGGTTYGAAVDGRATISRDSGQSTVRLQLNDLRAEDTGTYFCAKAAGGCSYSWCGAYVGDLDAWGHGTEVIVSS VL: ASTQPSSVSANPGETVKITCSGGGSYVGSYYYGWYQQKSPGSAPVTVIYNNNQRPSDIPSRFSGSKSGSTATLTITGVQAEDEAVYFCGGYDSSAGGIFGAGTTLTVLG

Row | Binder | Binding amount (RU) [1] [RU] | Dissociation amount (RU) [1] [RU] | Binding amount (RU) [2] [RU] | Dissociation amount (RU) [2] [RU] | Binding amount (RU) [3] [RU] | Dissociation amount (RU) [3] [RU] | Binding amount (RU) [4] [RU] | Dissociation amount (RU) [4] [RU] | binding result [5] | Kd [6] [nM] | Kd [7] [nM]
11 | anti-FSTL1 antibody clone #5-8 (chicken-mouse chimeric antibody) (antibody, mouse IgG1, kappa, V domains shown) VH: AVTLDESGGGLQTPGGGLSLVCKGSGFTFSSFNMFWVRQAPGKGLEWVAGIGKDGVPKYGTAVDGRATISKDNGQSTMRLQLNNLRAEDTGTYFCAKAAGGCSYDWCGIYTGDIDTWGHGTEVIVSS VL: ASTQPSSVSANPGEAVKITCSGGSGSYYGWYQQKSPGSAPVTVIYNNNQRPSDIPSRFSGSKSGSTATLTITGVQAEDEAVYFCGGYDSSTGHGGIFGAGTTLTVLG | 6.7 | 3.4 | 6.7 | 3.4 | 6.7 | 3.4 | 6.7 | 3.4 | no binding (tested: antibody diluted from 100 ng/ml) |  | 
